Measurements taken from patent US20190161555A1 (ALLIGATOR BIOSCIENCE, published 2019).
Substitutions are numbered along the chain they refer to.

T1: human 5T4 on transfected cells (human, UniProt Q13641 32-420)
T1 construct: whole, on cells; for B16 and A9 cells only a 5T4 construct is named; also called 5T4-transfected B16 cells; B16-5T4
T1 sequence (looked up): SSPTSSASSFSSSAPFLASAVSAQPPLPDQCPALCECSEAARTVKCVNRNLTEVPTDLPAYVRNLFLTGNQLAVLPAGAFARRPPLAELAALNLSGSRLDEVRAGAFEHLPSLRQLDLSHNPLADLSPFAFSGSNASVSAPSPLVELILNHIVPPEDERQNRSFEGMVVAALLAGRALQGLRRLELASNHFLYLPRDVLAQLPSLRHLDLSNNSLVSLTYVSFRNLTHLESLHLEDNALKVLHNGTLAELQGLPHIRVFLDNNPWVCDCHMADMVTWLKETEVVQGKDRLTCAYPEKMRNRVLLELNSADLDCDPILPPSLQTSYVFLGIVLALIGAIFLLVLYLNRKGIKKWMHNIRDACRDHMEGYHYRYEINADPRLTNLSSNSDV

T2: Human OX40 (R&D Systems, 3388-OX) (human, UniProt P43489 29-216)
T2 construct: bought; also called OX40-Fc; Human OX40 (R&D systems, #3358_OX)
T2 sequence (looked up): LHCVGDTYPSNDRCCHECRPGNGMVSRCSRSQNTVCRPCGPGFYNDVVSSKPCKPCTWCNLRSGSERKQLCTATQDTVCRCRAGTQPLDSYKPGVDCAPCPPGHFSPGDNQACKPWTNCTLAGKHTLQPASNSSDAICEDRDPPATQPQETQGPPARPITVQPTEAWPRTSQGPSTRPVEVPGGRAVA

B1: 1210/1211 (antibody, IgG1, V domains shown)
VH: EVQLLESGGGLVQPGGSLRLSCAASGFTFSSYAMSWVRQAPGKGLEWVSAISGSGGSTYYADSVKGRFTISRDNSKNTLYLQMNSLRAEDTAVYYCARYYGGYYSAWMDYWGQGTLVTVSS
VL: DIQMTQSPSSLSASVGDRVTITCRASQSISSYLNWYQQKPGKAPKLLIYAASSLQSGVPSRFSGSGSGTDFTLTISSLQPEDFATYYCQQTYGYLHTFGQGTKLEIK
notes: 5T4 antibody
B2: 1206/1207 (antibody, V domains shown)
VH: EVQLLESGGGLVQPGGSLRLSCAASGFTFSGSSMSWVRQAPGKGLEWVSSIYYSGSGTYYADSVKGRFTISRDNSKNTLYLQMNSLRAEDTAVYYCARYGRNVHPYNLDYWGQGTLVTVSS
VL: B1 VL with T91G, G93Y, H96P
notes: 5T4 antibody

What was measured:
cynomolgus 5T4 = biological target: T3, cynomolgus 5T4 (Macaca mulatta (cynomolgus)); test: flow cytometry, CHO cells transfected with cynomolgus 5T4
T3 construct: whole, on cells; stably transfected CHO cells; also called cyno5T4; cy5T4
Procedure: The potency of 5T4 antibodies in binding to cynomolgus 5T4 was determined by flow cytometry. CHO cells were stably transfected with […] (cynomolgus) 5T4. […] Samples were analysed either on a FACSCalibur or a FACSverse (BD Biosciences, Heidelberg, Germany) and mean fluorescence intensity (MFI) determined. […] To compare the EC50 values between human and cynomolgus 5T4, the cy5T4/hu5T4 ratio was calculated from the experiment with the full dose-response.

[1] = biological target: T1, human 5T4 on transfected cells; test: flow cytometry, CHO cells stably transfected with human 5T4
Procedure: Analysis of 5T4 mAb binding with flow cytometry was performed using 5T4-transfected cell lines and as negative control, mock transfected cells. Three different transfected cell lines used were used for this study; B16, A9 and CHO, transfected either with a 5T4 construct or with an empty vector control construct. Cells were stained with 5T4 antibodies diluted in FACS buffer (PBS, 0.5% BSA and 0.02% NaN₃). […] Samples were analysed either on a FACSCalibur or a FACSverse (BD Biosciences, Heidelberg, Germany) and mean fluorescence intensity (MFI) determined.
In a new attempt to calculate EC50 with flow cytometry a 5T4 mAb dose response experiment was performed using CHO cells stably transfected with human 5T4.

[2] = biological target: T4, human/mouse 5T4 chimera E1; test: flow cytometry, cells with 5T4 chimera; % positive cells over that of the best clone
T4 construct: on stably transfected CHO cells
Procedure: (§1) Epitope mapping was performed by investigation of loss of binding by the antibodies using a panel of human/mouse chimeric 5T4 constructs by flow cytometry. […] Two strategies were used for the epitope mapping as illustrated in FIG. 5. In one approach, seven human/mouse 5T4 chimeras were constructed based on dividing 5T4 into seven different domains (FIG. 5). By replacing each domain with the corresponding mouse sequence seven human/mouse 7 5T4 human/mouse chimeras were generated. The chimeras were generated using the human protein 5T4 sequence NP_006661.1 (reference mRNA sequence NM_006670.4) and the corresponding mouse sequence NP_035757.2 (reference mRNA sequence NM_011627.4). The human/mouse chimeric DNA constructs, as well as human and mouse wild-type 5T4, were cloned into pcDNA3.1 expression vectors. […] In the other approach, cells transfected with a human/mouse 5T4 chimera (Woods et al., 2002) was used, in which mouse sequence in amino acid 173-420 replaced the human sequence (FIG. 5). As controls human 5T4 and mouse 5T4-transfected cells were used.
(§2) For flow cytometric analysis, cells were stained with different 5T4 antibodies diluted in FACS buffer (PBS, 0.5% BSA). […] Samples were analysed by FACSverse (BD Biosciences, Heidelberg, Germany) and % positive cells were determined. To compensate for variations in % 5T4 positive cells in the various transfected populations, binding levels were normalized within each chimera by dividing % positive cells for each clone with % positive cells for the clones resulting in the highest % positive cells (% pos cellsclonX/% positive cellsₘₐₓ). A normalized value≤0.75 was defined as mAb binding being dependent on the replaced region, whereas a normalized value≤0.25 was defined as complete dependence.

[3] = biological target: T5, human/mouse 5T4 chimera E2; test: as above
T5 construct: on stably transfected CHO cells
Procedure: as §1, §2

[4] = biological target: T6, human/mouse 5T4 chimera E3; test: as above
T6 construct: on stably transfected CHO cells
Procedure: as §1, §2

[5] = biological target: T7, human/mouse 5T4 chimera E4; test: as above
T7 construct: on stably transfected CHO cells
Procedure: as §1, §2

[6] = biological target: T8, human/mouse 5T4 chimera E5; test: as above
T8 construct: on stably transfected CHO cells
Procedure: as §1, §2

[7] = biological target: T9, human/mouse 5T4 chimera E6; test: as above
T9 construct: on stably transfected CHO cells
Procedure: as §1, §2

[8] = biological target: T10, human/mouse 5T4 chimera E7; test: as above
T10 construct: on stably transfected CHO cells
Procedure: as §1, §2

[9] = biological target: T2, Human OX40 (R&D Systems, 3388-OX); test: dual ELISA: OX40-Fc coated, detection with biotinylated 5T4-Fc and streptavidin-HRP, luminescence
Procedure: A dual ELISA was used to detect simultaneous binding of the two targets by the bispecific antibodies. ELISA plates were coated with OX40-Fc (R&D systems, #3388-OX, 0.5 μg/ml) over night at 4° C. followed by blocking with PBST+2% bovine serum albumin (BSA) for 1 h at room temperature (RT). […] Biotinylated 5T4-Fc (0.5 μg/ml), followed by HRP-labelled streptavidin (Pierce #21126) were used for detection. Super signal ELISA Pico Chemiluminescent Substrate (Thermo Scientific, #37069) was used as substrate and luminescence was measured using FLUOstar Optima.

| Binder | EC50 (cynomolgus 5T4) [nM] | EC50 [1] [nM] | EC50 normalized to reference 1628 [1] | normalized % positive cells [2] | normalized % positive cells [3] | normalized % positive cells [4] | normalized % positive cells [5] | normalized % positive cells [6] | normalized % positive cells [7] | normalized % positive cells [8] | binding result [9] |
| --- | --- | --- | --- | --- | --- | --- | --- | --- | --- | --- | --- |
| B1 | 0.7 | 0.81 | 1.6 ratio to 1628 | 0.99 | 0.02 | 0.9 | 0.69 | 0.89 | 0.89 | 0.96 | no binding (tested: about 80 nM (log[conc ab] 1.9)) |
| B2 | 1.53 | 0.51 | 1 ratio to 1628 | 0.96 | 0.74 | 0.25 | 0.52 | 0.9 | 0.94 | 0.94 | – |
